Where two headings read alike, the source gives them in different places.
Assays:
U87MG xenograft tumors = details: in vivo; cited from earlier work
Description: The cyclic RGD peptides c(RGDfK) and […] have frequently been used for radiolabeling. c(RGDfK), cyclo [Arg-Gly-Asp-D-Phe-Lys] only differs from c(RGDyK), cyclo [Arg-Gly-Asp-D-Tyr-Lys], in one amino acid, D-Phenylalanine (D-Phe) instead of D-tyrosine (D-Tyr). D-Tyr is more hydrophilic than D-Phe and c(RGDyK) has therefore been reported as preferable due to faster renal excretion. In our study we found a faster decrease of radioactivity in kidneys, intestine, and liver from 1 to 18 h (2.2 to 0.5, 1.6 to 0.4, and 1.1 to 0.4%ID/g) than that reported for ^64Cu-NODAGA-c(RGDfK) in the sam ... || NODAGA-c(RGDy/fK) has been labeled with ^68Ga and NODAGA-c(RGDfK) also with ^64Cu. One paper compared ^68Ga- and ^64Cu-NODAGA-c(RGDfK) and found the highest tracer uptake using ^68Ga-NODAGA-c(RGDfK) compared to ^64Cu-NODAGA-c(RGDfK) (5.2 versus 3.8%ID/g, 1 h p.i. in highly angiogenic U87MG xenograft tumors) but also 3 times higher tumor-to-blood ratio [12]. We found similar T/B ratio (12.7) after 1 hour using ^64Cu-NODAGA-c(RGDyK) as they did with ^64Cu-NODAGA-c(RGDfK). The advantage of ^64Cu labeling is the possibility of delayed imaging up to 12 or 18 h post ...

in vitro = in vitro ADME, nude mice; details: nude, mouse, plasma
Description: The product (Figure 1) was used without further purification. HPLC analysis was performed with a Jupiter column, 4u Proteo 90A, 250 × 4.6 mm (Phenomenex, Torrance, CA, USA) and flow 1.5 mL/min. The HPLC mobile phase was solvent A, 0.1% trifluoroacetic acid in water, and solvent B, 0.1% trifluoroacetic acid in acetonitrile. Gradient: 0–2 min 15% B, 2–7 min 15–40% B, and 7–10 min 40–15% B. […] Plasma was mixed with equal amounts of acetonitrile after incubation. The resulting mixture was centrifugated and the supernatant was collected and filtered.

[1] = Biodistribution (gamma counting) in mice with H727 xenografts; details: female, NMRI nude, mouse, in vivo, iv, 2 MBq, total radioactivity
Description: (§1) Female NMRI (Naval Medical Research Institute) nude mice (6 weeks upon arrival) were acquired from Taconic Europe, Lille Skensved, Denmark. The mice were acclimated one week in the animal facilities before taken into experiments. […] […] Hypnorm^R (Janssen Pharmaceutica NV, Beerse, Belgium)/Dormicum^R (Roche, Basel, Switzerland). Tumors were then grown for 3-4 weeks (average tumor volume 210 mm^3). Animal care and experimental procedures were performed under the approval of the Danish Animal Welfare Council (2006/561-1124). Tumor bearing mice were anesthetized with 3% sevoflurane (Abbott Scandinavia AB, Solna, Sweden) mixed with 35% O2 in N2. […] Mice were sacrificed by neck drawing and tumors, organs (liver, kidneys, lung, spleen, heart, intestine, and muscle) and blood were collected, weighted, and radioactivity measured in a gamma counter (2480 Wizard^2, Perkin Elmer, MA, USA). Tumors were immediately placed in tubes containing RNAlater^R (Ambion Inc., TX, USA), stored overnight at 4°C, RNAlater^R then removed, and tumors stored at -80°C until total RNA extraction and further QPCR experiments were performed. […] (0.97 ± 0.03, 0.64 ± 0.04, 0.65 ± 0.04, and 0.62 ± 0.04) and decreasing further at 18 h p.i.

[2] = system: human neuroendocrine tumor xenografts (H727); assay: as above; details: female, NMRI nude, mouse, in vivo, iv, 2 MBq, 18 h
Description: as §1

[3] = parameters: species or system mice; details: mouse, in vivo
Description: Dose Assessment/EXponential Modeling software (OLINDA/EXM; Vanderbilt University, Nashville, TN, USA). To ensure a conservative estimate, the urinary elimination fraction was set to 75% with voiding intervals of 5 hours. The effective dose for both adult male and female were then calculated using OLINDA/EXM.

in vivo = details: nude, mouse, iv, 1.6 MBq, total radioactivity
Description: A longitudinal dynamic study was performed scanning a mouse at 1, 2, and 18 hours after intravenous injection of 1.6 MBq ^64Cu-NODAGA-c(RGDyK), allowing dynamic information of the tracer biodistribution in tumors as well as in the other organs of interest. The PET scans were performed using a small animal PET scanner (MicroPET Focus 120, Siemens Medical Solutions, Knoxville, TN, USA). The energy window for the emission PET scans was set to 350–650 keV and the time resolution was 6 ns. Scan time was 10 min.
The acquired data for emission scan was stored in list-mode format and postprocessed to obtain 2 bytes 128 × 144 × 32 sinograms. Finally, the emission sinograms were reconstructed using MAP Algorithms and resulted into 4-byte 256 × 256 × 95 image sets with a zoom factor of 1.443 and a voxel size of 0.87 × 0.87 × 0.79 mm^3. Furthermore, the emission sinograms were corrected for dead time and decay time. Scatter and attenuation corrections were not applied to the emission data. The system was calibrated to provide activity concentrations as Bq/cc.
The small animal CT scans of the mouse parallel with the PET scans were acquired using a small animal computed tomography (microCAT II, Siemens Medical Solutions). The acquisition time of each CT scan was 6.5 minutes generating 360 projections at 360° arc. The X-ray source settings were 75 kVp, 500 μA, and 270 ms for the voltage, the current, and the exposure time, respectively. The CT projections on the 3,000 × 2,970 CCD crystal were binned by 4 to increase sensitivity and reduce the dataset size. The projections were reconstructed by real-time reconstruction algorithm (the COBRA toolbox) using Shepp-Logan filter into 768 × 768 × 512 matrix with a voxel size of 0.092 × 0.092 × 0.092 mm^3.
The fusion of the PET and CT images was performed manually using the ASIPro Toolbox (Siemens Medical Solutions). Also the analyses of PET images were performed in the ASIPro toolbox.
The measurement of the activity uptake in the tumors and the organs were estimated by manually outlining on CT images. […] The 3D ROIs of the organs were then applied on the corresponding PET images. The results of these ROIs acquired the concentration of the tracer in the organs expressed in percentage of the injected dose per gram tissue (%ID/g).

In the case of ^68Ga-NODAGA-c(RGDfK) (head to tail), the “tumor-to-blood ratio, times higher than ^64Cu-NODAGA-c(RGDfK)” value (U87MG xenograft tumors) is listed as 3 times.
Work on `N=C(N)NCCC[C@@H]1NC(=O)[C@H](CCCCNC(=O)CCC(C(=O)O)N2CCN(CC(=O)O)CCN(CC(=O)O)CC2)NC(=O)[C@@H](Cc2ccc(O)cc2)NC(=O)[C@H](CC(=O)O)NC(=O)CNC1=O` (stereo partly drawn) [^64Cu-NODAGA-c(RGDyK), metal not drawn] yielded a remaining at 24 h, 20 MBq/mL (in vitro) of 88%, a tissue uptake at 1 h ([1]; %ID/g intestines) of 1.6 ± 0.16 %ID/g and a tissue uptake at 2 h ([1]; %ID/g intestines) of 0.64 ± 0.04 %ID/g. For the same compound, the tissue uptake at 18 h ([1]; %ID/g intestines) was 0.43 ± 0.04 %ID/g, the tissue uptake at 1 h ([1]; %ID/g kidneys) was 2.2 ± 0.11 %ID/g and the tissue uptake at 2 h ([1]; %ID/g kidneys) was 0.97 ± 0.03 %ID/g. The tissue uptake at 18 h ([1]; %ID/g kidneys) was 0.51 ± 0.02 %ID/g, the tissue uptake at 1 h ([1]; %ID/g liver) was 1.05 ± 0.17 %ID/g and the tissue uptake at 2 h ([1]; %ID/g liver) was 0.65 ± 0.04 %ID/g. The tissue uptake at 18 h ([1]; %ID/g liver) was 0.43 ± 0.02 %ID/g, the tissue uptake at 1 h ([1]; %ID/g spleen) was 0.94 ± 0.11 %ID/g and the tissue uptake at 2 h ([1]; %ID/g spleen) was 0.62 ± 0.04 %ID/g. For the same compound, the tissue uptake at 18 h ([1]; %ID/g spleen) was 0.33 ± 0.02 %ID/g, the tissue uptake at 2 h ([1]; Mean %ID/g for H727 tumors) was 0.68 ± 0.06 %ID/g and the tissue uptake at 18 h ([1]; Mean %ID/g for H727 tumors) was 0.63 ± 0.04 %ID/g. For the same compound, the tissue to tissue ratio at 1 h ([1]; Tumor-to-blood ratio) was 12.7, the tissue to tissue ratio at 2 h ([1]; Tumor-to-blood ratio) was 37.2 and the tissue to tissue ratio at 18 h ([1]; Tumor-to-blood ratio) was 20.2. For the same compound, the tissue to tissue ratio at 1 h ([1]; Tumor-to-intestine ratio) was 0.72 ± 0.08, the tissue to tissue ratio at 2 h ([1]; Tumor-to-intestine ratio) was 1.06 ± 0.11 and the tissue to tissue ratio at 18 h ([1]; Tumor-to-intestine ratio) was 1.53 ± 0.11. For the same compound, the tissue to tissue ratio at 1 h ([1]; Tumor-to-liver ratio) was 1.08 ± 0.11, the tissue to tissue ratio at 2 h ([1]; Tumor-to-liver ratio) was 1.03 ± 0.11 and the tissue to tissue ratio at 18 h ([1]; Tumor-to-liver ratio) was 1.54 ± 0.1. For the same compound, the tissue to tissue ratio ([1]; Tumor-to-muscle ratio) was 6.5 ± 0.7, the tissue to tissue ratio at 1 h ([1]; Tumor-to-muscle ratio) was 4.99 ± 0.59 and the tissue to tissue ratio at 2 h ([1]; Tumor-to-muscle ratio) was 7.34 ± 1.16. For the same compound, the tissue to tissue ratio at 18 h ([1]; Tumor-to-muscle ratio) was 7.09 ± 0.52, the tissue to tissue ratio at 1 h ([1]; 1 h p.i., biodistribution, H727 xenograft mice, read-out: Tumor-to-kidney ratio) was 0.51 ± 0.05 and the tissue uptake at 1 h ([1]; 1 h p.i., i.v. 2.0 ± 0.7 MBq, gamma counter, mean ± SEM, read-out: Mean %ID/g for H727 tumors) was 1.15 ± 0.13 %ID/g. The tissue to tissue ratio at 18 h ([1]; 18 h p.i., biodistribution, H727 xenograft mice, read-out: Tumor-to-kidney ratio) was 1.2 ± 0.09, the “%ID/g intestines” value [2] was 0.4 %ID/g and the “%ID/g kidneys” value [2] was 0.5 %ID/g. The “%ID/g liver” value [2] was 0.4 %ID/g, the “Residence time, Heart” value [3] was 3.54E − 03 Bq ∗ h/Bq and the “Residence time, Kidneys” value [3] was 2.10E − 01 Bq ∗ h/Bq. For the same compound, the “Residence time, Liver” value [3] was 3.00E − 01 Bq ∗ h/Bq, the “Residence time, Lungs” value [3] was 1.29E − 02 Bq ∗ h/Bq and the “Residence time, Small intestine” value [3] was 2.79E − 01 Bq ∗ h/Bq. The “Residence time, Spleen” value [3] was 1.20E − 02 Bq ∗ h/Bq, the tissue to tissue ratio (in vivo) was 6.9 ± 0.8 and the tissue uptake at 1 h (in vivo) was 1.15 %ID/g. For the same compound, the tissue uptake at 2 h (in vivo) was 0.99 %ID/g and the tissue uptake at 18 h (in vivo) was 0.76 %ID/g.

Reference: PMC3469102, “^64Cu-NODAGA-c(RGDyK) Is a Promising New Angiogenesis PET Tracer: Correlation between Tumor Uptake and Integrin α V β 3 Expression in Human Neuroendocrine Tumor Xenografts” (International Journal of Molecular Imaging, 2012)
